Experimental data from PMC5884802.
Blank lines part the entries; values can stand above or below the molecule they belong to.

Key:
[1] = test system: Amp(short)-FAM (α-Amp(short) aptamer) (DNA, aptamer) CACGGCATGGTGGGCGTCGTG; assay: microscale thermophoresis; conditions: Na+ 50 mM, K+ 5 mM, Mg2+ 5 mM, Ca2+ 2 mM; 20 mM Tris-HCl, 0.1% Tween-20, pH 8.0; second printed KD 600 nM, unexplained
[2] = test system: CRP-FAM (α-CRP aptamer) (DNA, aptamer) ACACGATGGGGGGGTATGATTTGATGTGGTTGTTGCATGATCGTGG; assay: microscale thermophoresis; conditions: Na+ 50 mM, K+ 5 mM, Mg2+ 5 mM, Ca2+ 2 mM; 20 mM Tris-HCl, 0.1% Tween-20, pH 8.0; up to 100 µM; no plateau, no fit
[3] = test system: α-Amp-short (α-Amp-short-AuNP) (DNA, aptamer) CACGGCATGGTGGGCGTCGTG; assay: competitive lateral flow assay; conditions: Na+ 50 mM, K+ 5 mM, Mg2+ 5 mM, Ca2+ 2 mM; 20 mM Tris, 0.1 mM BSA, 1.7% Triton-X-100, pH 8; biotinylated CRP displaced; signal decrease at 185 µg ampicillin
[4] = test system: α-CRP (α-CRP-AuNP) (DNA, aptamer) ACACGATGGGGGGGTATGATTTGATGTGGTTGTTGCATGATCGTGG; assay: competitive lateral flow assay; conditions: Na+ 50 mM, K+ 5 mM, Mg2+ 5 mM, Ca2+ 2 mM; 20 mM Tris, 0.1 mM BSA, 1.7% Triton-X-100, pH 8; biotinylated CRP displaced; signal decrease at 18.5 µg ampicillin
[5] = target: T1, C-reactive protein (CRP), biotinylated (UniProt P02741 19-224); assay: MST; binding indicated, no plateau, no Kd fit; CRP-biotin 610 pM-20 µM; LFA: 20 mM Tris, 50 mM NaCl, 5 mM KCl, 5 mM MgCl2, 2 mM CaCl2, 0.1 mM BSA, 1.7% Triton X-100, pH 8, temperature not stated; MST with CRP-biotin: 32.8 mM Tris-HCl, 70.5 mM NaCl, 2.5 mM KCl, 2.5 mM MgCl2, 1.4 mM CaCl2, 0.1% Tween-20, 5 nM FAM-oligo; conditions: protein: commercial; tags: biotin (NHS-PEG4-Biotin); chain copies: 5; label: 5' FAM; stem-loop (Mfold)
T1 sequence: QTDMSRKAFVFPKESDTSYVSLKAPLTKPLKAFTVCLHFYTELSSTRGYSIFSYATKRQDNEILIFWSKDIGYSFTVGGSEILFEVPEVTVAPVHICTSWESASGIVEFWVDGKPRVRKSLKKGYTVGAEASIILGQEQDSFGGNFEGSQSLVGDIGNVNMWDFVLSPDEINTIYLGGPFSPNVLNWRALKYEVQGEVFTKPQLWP

[6] = target: T1, C-reactive protein (CRP), biotinylated; assay: lateral flow assay (FAM); 4 µg CRP-biotin; LFA: 20 mM Tris, 50 mM NaCl, 5 mM KCl, 5 mM MgCl2, 2 mM CaCl2, 0.1 mM BSA, 1.7% Triton X-100, pH 8, temperature not stated; MST with CRP-biotin: 32.8 mM Tris-HCl, 70.5 mM NaCl, 2.5 mM KCl, 2.5 mM MgCl2, 1.4 mM CaCl2, 0.1% Tween-20, 5 nM FAM-oligo; conditions: protein: commercial; tags: biotin (NHS-PEG4-Biotin); chain copies: 5; label: 5' FAM
[7] = target: T1, C-reactive protein (CRP), biotinylated; assay: lateral flow assay (AuNP); 40.5 µg CRP-biotin; LFA: 20 mM Tris, 50 mM NaCl, 5 mM KCl, 5 mM MgCl2, 2 mM CaCl2, 0.1 mM BSA, 1.7% Triton X-100, pH 8, temperature not stated; MST with CRP-biotin: 32.8 mM Tris-HCl, 70.5 mM NaCl, 2.5 mM KCl, 2.5 mM MgCl2, 1.4 mM CaCl2, 0.1% Tween-20, 5 nM FAM-oligo; conditions: protein: commercial; tags: biotin (NHS-PEG4-Biotin); chain copies: 5; label: 10 nm gold nanoparticle via 5' thiol; stem-loop (Mfold)
[8] = target: T1, C-reactive protein (CRP), biotinylated; assay: lateral flow assay (AuNP); 40.5 µg CRP-biotin; test line stronger than α-CRP; LFA: 20 mM Tris, 50 mM NaCl, 5 mM KCl, 5 mM MgCl2, 2 mM CaCl2, 0.1 mM BSA, 1.7% Triton X-100, pH 8, temperature not stated; MST with CRP-biotin: 32.8 mM Tris-HCl, 70.5 mM NaCl, 2.5 mM KCl, 2.5 mM MgCl2, 1.4 mM CaCl2, 0.1% Tween-20, 5 nM FAM-oligo; conditions: protein: commercial, tags: biotin (NHS-PEG4-Biotin), chain copies: 5, label: 10 nm gold nanoparticle via 5' thiol

KD [1]: 263 nM | binding [2]: yes | binding [3]: yes | binding [4]: yes
Molecule: CC1(C)S[C@@H]2[C@H](NC(=O)[C@H](N)c3ccccc3)C(=O)N2[C@H]1C(=O)O

B1: Amp(short)-FAM (ssDNA)
DNA: CACGGCATGGTGGGCGTCGTG
binding result [5]: binds

B2: CRP w/o TGG-FAM (ssDNA)
DNA: ACACGAACCGGGCCAATGATTTGATGACCTTGTTGCATGATCGTAG
binding result [6]: binds

B3: CRP-FAM (ssDNA)
DNA: ACACGATGGGGGGGTATGATTTGATGTGGTTGTTGCATGATCGTGG
binding result [5]: binds

B4: α-CRP (AuNP conjugate) (ssDNA)
DNA: B3 DNA
modifications: 5' SH-(C6H12) thiol
binding result [7]: binds

B5: α-Amp-short (AuNP conjugate) (ssDNA)
DNA: CACGGCATGGTGGGCGTCGTG
modifications: 5' SH-(C6H12) thiol
binding result ([8]; stem-loop (Mfold)): binds

B6: Amp(short) w/o TGG-FAM (ssDNA)
DNA: CACGGCATAGACCGCGTCGTG
binding result [6]: binds

B7: α-Amp-poly(T) (AuNP conjugate) (ssDNA)
DNA: TTTTTTTTTTTTTTTCACGGCATGGTGGGCGTCGTG
modifications: 5' SH-(C6H12) thiol
binding result [8]: binds
